Assay results published in paper PMC7943553 (2021).

Tests used:
279280 [1] = assay: BLI
239229 [2] = assay: BLI
252248 [3] = assay: BLI
254255 [4] = assay: BLI
326327 [5] = assay: BLI
281282 = assay: BLI
340341 [6] = assay: BLI
250233 [7] = assay: BLI
346343 [8] = assay: BLI
277278 [9] = assay: BLI
262231 [10] = assay: BLI
260261 [11] = assay: BLI
256257 [12] = assay: BLI
335338 [13] = assay: BLI
267268 [14] = assay: BLI
279280 [15] = assay: BLI; representative sensorgram
239229 [16] = assay: BLI; representative sensorgram
252248 [17] = assay: BLI; representative sensorgram
254255 [18] = assay: BLI; representative sensorgram
326327 [19] = assay: BLI; representative sensorgram
340341 [20] = assay: BLI; representative sensorgram
250233 [21] = assay: BLI; representative sensorgram
346343 [22] = assay: BLI; representative sensorgram
277278 [23] = assay: BLI; representative sensorgram
262231 [24] = assay: BLI; representative sensorgram
260261 [25] = assay: BLI; representative sensorgram
256257 [26] = assay: BLI; representative sensorgram
335338 [27] = assay: BLI; representative sensorgram
267268 [28] = assay: BLI; representative sensorgram

B1: P. vivax Reticulocyte Binding Protein 2b, residues 161–1454 (domain or fragment)
chain: PSPESTQITNTTDNIDYFDISDESNYYLISQLRPHFSNIYFFDEFKRYASYHTEIKRYEDIHKTKVNSLLNEASRAIGICNRAKNTVKGLINILENPQKFKTQRESYDVKLRQYEEKKEAFRGCLLNKNRKNLDQIKKINNEIRDLLEKLKCSQDCQTNVYFDMIKIYLVDFKKMPYENYDTFIKQYKNSYLSGVDMIRKIEKQIDNPVTINAIKFTQKEMGYIIDRFEYHLQKVKHSIDQVTALSDGVKPKQVTKNRLKEYYFNIGNYYSIFKFGKDSLNMLNKALIHKEKIVHNLLGELFGHLEERISKLIDSEYFITESNNIISQSEETLKLAEDVYDKNTKLIEDLTLYPHLEINEFKKDYDNNVEDLRESIIYIQSYVSSIKSAYRYNVLEKDSVESKQKNIPANSNAQKKVDELLSIIDSISYSNFSVAENFQKMKDYYKEIEKLKIKILQLIEAIKKYQQHVEELINKEKAVAILKEDINKIIEYIKGIIEKLKQLISANKDFDKIFQQVEQLINEALFNKDQFEHNKNDLHTKMKEIMHTFHERDLQQFLDNMSKFLKDQEASYQNADSKEKLDQLLTTVKAKQDELKEMKCDDIPDIIDNLKKESQNVLNLKDEVINKQFENMRTEMSSSLDQMTKEYNALKSSIEEYEAEKKGIENHKQNIIKRKNTFIVAEHENDEDVPEGKNTYNEFISNKDTILQKESAISNQMNTLEEKKRNRKTTLQTYGDAIQKLETYTEKKDEETKVLLDKFNTEVENFKLDEDEKSFNDAKSIVSNTINEVENENKNIDSIKKVNIAMKRSRSNQQSVEQLIRNKDNLLKEKMEKHFQKINTDEIIGQSAKANLLNNLESEKAIINEQLNDAHLNDLKLQIEKTLSYCEKSRENIKGNNGTHPEELNASEIEWEATKGKIETLNSNYQALNKNMDDIINKQHDEMIVLIDRDIKEKGKDIELKVEQRIQALEKMKAKLSSFDTNEDVKKYQSDINKEELIKLKEMSTAVLNKIDQNKNQLINVKTKSSGYVAESNGIKNKQTEPSQEKDKQIVYNTNRGDIEKVYKNIRDMYNELDDVEKEETTSNEVDNIEMQYDRLLINLLVQKINEENTKAKGLMEEIKSYIENIESVQAKMSDETREGATEFEFNQYQQSSLANDKKITEIVQHAINKKGEAERSKKTNEVKSIKNDVNTYMQQVIDEYNAMQKALGDIKNVNDLLISTSGRRIAEEISKSTNEAENFEKQAKGELGKINDIIEKMENQMVQAKEHENKIHINLEDKQIDEEVQKIRQIHEE
modifications: DyLight 488 (NHS ester) in the FRET assay; biotin (BirA site) in the competition ELISA between human mAbs
How did the Kd 279280 [1] turn out when B1 was run?
The Kd was 0.727 nM.

And the koff 279280 [1]?
Its koff is 0.000194 s⁻¹.

What about the Kd 239229 [2] of the same binder?
The Kd was 0.112 nM.

And the koff 239229 [2]?
Its koff is 4.6e-05 s⁻¹.

What about the Kd 252248 [3] of the same binder?
Its Kd is 0.586 nM.

What about the koff 252248 [3] of the same binder?
Its koff is 0.000193 s⁻¹.

What about the Kd 254255 [4] of the same binder?
Its Kd is 0.0742 nM.

And the koff 254255 [4]?
Its koff is 2.52e-05 s⁻¹.

What about the Kd 326327 [5] of the same binder?
The Kd was 0.642 nM.

And the koff 326327 [5]?
The koff was 0.000246 s⁻¹.

And the Kd 281282?
The Kd was 0.0273 nM.

What about the koff 281282 of the same binder?
The koff was 6.03e-06 s⁻¹.

What about the Kd 340341 [6] of the same binder?
The Kd was 0.107 nM.

And the koff 340341 [6]?
Its koff is 3.85e-05 s⁻¹.

What about the Kd 250233 [7] of the same binder?
The Kd was 0.988 nM.

What about the koff 250233 [7] of the same binder?
The koff was 0.00035 s⁻¹.

And the Kd 346343 [8]?
Its Kd is less than 0.01 nM.

What about the koff 346343 [8] of the same binder?
Its koff is less than 1e-06 s⁻¹.

And the Kd 277278 [9]?
Its Kd is 0.0796 nM.

And the koff 277278 [9]?
Its koff is 3.08e-05 s⁻¹.

What about the Kd 262231 [10] of the same binder?
Its Kd is 0.14 nM.

What about the koff 262231 [10] of the same binder?
Its koff is 6.22e-05 s⁻¹.

What about the Kd 260261 [11] of the same binder?
The Kd was 0.0205 nM.

And the koff 260261 [11]?
Its koff is 6.23e-06 s⁻¹.

What about the Kd 256257 [12] of the same binder?
Its Kd is less than 0.01 nM.

And the koff 256257 [12]?
The koff was less than 1e-06 s⁻¹.

What about the Kd 335338 [13] of the same binder?
The Kd was 0.0782 nM.

And the koff 335338 [13]?
Its koff is 3.08e-05 s⁻¹.

And the Kd 267268 [14]?
The Kd was 0.213 nM.

And the koff 267268 [14]?
The koff was 5.71e-05 s⁻¹.

And the Kd 279280 [15]?
The Kd was 0.8 nM.

What about the Kd 239229 [16] of the same binder?
The Kd was 0.1 nM.

What about the Kd 252248 [17] of the same binder?
Its Kd is 0.3 nM.

And the Kd 254255 [18]?
Its Kd is 0.0157 nM.

And the Kd 326327 [19]?
The Kd was 0.5 nM.

What about the Kd 340341 [20] of the same binder?
Its Kd is 0.0794 nM.

What about the Kd 250233 [21] of the same binder?
The Kd was 1 nM.

What about the Kd 346343 [22] of the same binder?
Its Kd is less than 0.01 nM.

What about the Kd 277278 [23] of the same binder?
The Kd was 0.0189 nM.

What about the Kd 262231 [24] of the same binder?
The Kd was 0.1 nM.

And the Kd 260261 [25]?
Its Kd is less than 0.01 nM.

What about the Kd 256257 [26] of the same binder?
Its Kd is less than 0.01 nM.

And the Kd 335338 [27]?
Its Kd is 0.0505 nM.

And the Kd 267268 [28]?
The Kd was 0.3 nM.
